Key:
[1] = target: T1, EMR2W4, huEMR2 GAIN domain + GPS, D261-T540, with C-terminal Avi/6x His tag (human); test: SPR, EMR2 arm, forced degradation study: pH 5.0
T1 construct: also called Human EMR2 GAIN domain protein
T1 chain: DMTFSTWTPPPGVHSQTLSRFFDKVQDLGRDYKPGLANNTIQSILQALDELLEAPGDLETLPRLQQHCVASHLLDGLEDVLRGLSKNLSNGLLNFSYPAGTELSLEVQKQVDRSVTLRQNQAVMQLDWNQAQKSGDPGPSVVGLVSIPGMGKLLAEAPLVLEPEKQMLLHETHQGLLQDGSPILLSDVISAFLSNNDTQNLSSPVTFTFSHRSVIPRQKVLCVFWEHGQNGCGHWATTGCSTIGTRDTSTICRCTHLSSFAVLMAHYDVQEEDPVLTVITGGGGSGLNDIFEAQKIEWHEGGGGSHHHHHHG

[2] = target: T1, EMR2W4, huEMR2 GAIN domain + GPS, …; test: SPR protein binding (human), binding to EMR2W4
[3] = target: T1, EMR2W4, huEMR2 GAIN domain + GPS, …; test: SPR, EMR2 arm, forced degradation study: chemical oxidation
[4] = target: T2, human EMR2 (ADGRE2, CD312) on cells (human, UniProt Q9UHX3 24-823); test: flow cytometry, median AF647 of live cells, OCI-AML5 WT cells, 1 hour at 37 C
T2 construct: also called huEMR2 full length; Adhesion G protein-coupled receptor E2
T2 sequence: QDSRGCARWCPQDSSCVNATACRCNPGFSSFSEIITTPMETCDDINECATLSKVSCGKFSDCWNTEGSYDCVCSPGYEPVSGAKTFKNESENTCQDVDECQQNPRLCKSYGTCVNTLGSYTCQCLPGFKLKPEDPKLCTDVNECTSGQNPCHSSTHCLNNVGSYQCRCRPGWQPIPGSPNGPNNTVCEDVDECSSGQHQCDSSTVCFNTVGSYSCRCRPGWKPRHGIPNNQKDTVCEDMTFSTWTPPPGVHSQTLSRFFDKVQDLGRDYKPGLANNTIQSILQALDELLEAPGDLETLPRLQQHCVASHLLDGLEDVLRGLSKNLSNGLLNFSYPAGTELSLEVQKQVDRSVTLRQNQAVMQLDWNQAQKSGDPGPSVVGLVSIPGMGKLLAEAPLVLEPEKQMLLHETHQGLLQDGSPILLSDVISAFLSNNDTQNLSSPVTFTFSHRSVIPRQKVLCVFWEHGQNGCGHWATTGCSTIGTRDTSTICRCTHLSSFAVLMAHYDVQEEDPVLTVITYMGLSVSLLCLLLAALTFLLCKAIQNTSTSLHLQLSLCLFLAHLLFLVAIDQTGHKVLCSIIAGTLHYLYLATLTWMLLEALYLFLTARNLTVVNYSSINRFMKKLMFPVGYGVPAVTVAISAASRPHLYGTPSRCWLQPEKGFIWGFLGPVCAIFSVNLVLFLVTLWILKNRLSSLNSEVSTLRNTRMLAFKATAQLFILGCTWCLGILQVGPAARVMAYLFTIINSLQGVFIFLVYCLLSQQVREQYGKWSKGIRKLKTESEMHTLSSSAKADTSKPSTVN

[5] = target: T2, human EMR2 (ADGRE2, CD312) on cells; test: flow cytometry, OCI-AML2 cells, 1 hour at 37 °C; mean ± SEM
Procedure: (§1) After secondary detection with AF647-labeled material, the MFI signal was analyzed to generate an EC50 value. Curves are representative of 3 independent experiments.

[6] = target: T1, EMR2W4, huEMR2 GAIN domain + GPS, …; test: SPR, EMR2 arm, forced degradation study: pH 8.5
[7] = target: T1, EMR2W4, huEMR2 GAIN domain + GPS, …; test: SPR, EMR2 arm, forced degradation study: Release
[8] = target: T1, EMR2W4, huEMR2 GAIN domain + GPS, …; test: SPR, EMR2 arm, forced degradation study: Thermal
FcRn (cyno) = target: T3, FcRn (cyno) (cynomolgus monkey, UniProt Q8SPV9 24-297; Q8SPW0 21-119); test: FcRn binding (cyno, pH 6)
T3 construct: also called neonatal Fc receptor, cynomolgus monkey

[9] = target: T4, T-cell receptor with TRBV19 (Vβ17) beta chain on human T cells (human); test: flow cytometry, % TRBV19+ T cells of live human pan-T cells, 1 hour at 37 C
T4 construct: whole, on cells; also called Vb17; TRBV19+ T cells

[10] = target: T2, human EMR2 (ADGRE2, CD312) on cells; test: flow cytometry, MOLM-13 cells, 1 hour at 37 °C; mean ± SEM
Procedure: as §1

[11] = target: T1, EMR2W4, huEMR2 GAIN domain + GPS, …; test: SPR, EMR2 arm, forced degradation study: Physiological
[12] = target: T4, T-cell receptor with TRBV19 (Vβ17) beta …; test: cell-based or functional assay
[13] = target: T2, human EMR2 (ADGRE2, CD312) on cells; test: cell-based or functional assay
[14] = target: T4, T-cell receptor with TRBV19 (Vβ17) beta …; test: flow cytometry, percent TRBV19+ of live pan-T cells, Donor 3, 1 hour, 37 °C
[15] = target: T4, T-cell receptor with TRBV19 (Vβ17) beta …; test: flow cytometry, percent TRBV19+ of live pan-T cells, Donor 4, 1 hour, 37 °C
[16] = target: T4, T-cell receptor with TRBV19 (Vβ17) beta …; test: flow cytometry, percent TRBV19+ of live pan-T cells, Donor 5, 1 hour, 37 °C

T4 sequence (A0A075B6N1 22-114): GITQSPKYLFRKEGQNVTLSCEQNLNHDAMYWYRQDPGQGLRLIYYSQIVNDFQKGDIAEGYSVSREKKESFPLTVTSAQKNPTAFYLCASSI
T3 sequence (Q8SPV9 24-297 limits assumed, chain 1 of 2): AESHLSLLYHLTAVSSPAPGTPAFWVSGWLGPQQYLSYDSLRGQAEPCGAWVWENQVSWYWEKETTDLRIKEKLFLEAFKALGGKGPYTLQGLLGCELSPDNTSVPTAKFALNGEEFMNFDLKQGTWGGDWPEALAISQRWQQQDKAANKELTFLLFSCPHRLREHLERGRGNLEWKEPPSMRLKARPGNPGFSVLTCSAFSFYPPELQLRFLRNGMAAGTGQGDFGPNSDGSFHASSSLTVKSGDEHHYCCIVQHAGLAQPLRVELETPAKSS
T3 sequence (Q8SPW0 21-119 limits assumed, chain 2 of 2): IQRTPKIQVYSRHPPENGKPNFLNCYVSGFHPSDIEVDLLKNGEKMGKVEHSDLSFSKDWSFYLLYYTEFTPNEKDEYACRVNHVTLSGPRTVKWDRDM

B1: EMVBB8 (EMR2 x TRBV19 bispecific antibody) (bispecific antibody, human IgG1, kappa, L234A L235A)
heavy 1: DIQMTQSPSSLSASVGDRVTITCRSSQSLVHSNRNTYLHWYQQKPGCAPKLLIYKVSNRFSGVPSRFSGSGSGTDFTLTISSLQPEDFATYYCSQSTHVPFTFGQGTKLEIKGGGSGGSGGCPPCGGSGGQVQLQESGPGLVKPSETLSLTCTVSGYSITSGYFWNWIRQFPGKGLEWMGYISYDGSNNYNPSLKSRITISRDTSKNQFSLKLSSVTAADTAVYYCASPSPGTGYAVDYWGCGTTVTVSSEPKSSDKTHTCPPCPAPEAAGGPSVFLFPPKPKDTLMISRTPEVTCVVVSVSHEDPEVKFNWYVDGVEVHNAKTKPREEQYNSTYRVVSVLTVLHQDWLNGKEYKCKVSNKALPAPIEKTISKAKGQPREPQVYTLPPSREEMTKNQVSLWCLVKGFYPSDIAVEWESNGQPENNYKTTPPVLDSDGSFFLYSKLTVDKSRWQQGNVFSCSVMHEALHNHYTQKSLSLSPGK
heavy 2: EVQLVESGGGLVQPGGSLRLSCTASGFTFSRYSMNWVRQAPGEGLEWVSYISSSSNTIYYADSVKGRFTISRDNAKNSLYLQMNSLRDEDTAVYYCARDQGTPFDYWGQGTLVTVSSASTKGPSVFPLAPSSKSTSGGTAALGCLVKDYFPEPVTVSWNSGALTSGVHTFPAVLQSSGLYSLSSVVTVPSSSLGTQTYICNVNHKPSNTKVDKKVEPKSCDKTHTCPPCPAPEAAGGPSVFLFPPKPKDTLMISRTPEVTCVVVSVSHEDPEVKFNWYVDGVEVHNAKTKPREEQYNSTYRVVSVLTVLHQDWLNGKEYKCKVSNKALPAPIEKTISKAKGQPREPQVYTLPPSREEMTKNQVSLSCAVKGFYPSDIAVEWESNGQPENNYKTTPPVLDSDGSFFLVSKLTVDKSRWQQGNVFSCSVMHEALHNRFTQKSLSLSPGK
light: EIVLTQSPSSVSASIGDRVTITCRASQDISSWLGWYQQKPGKAPKLLIYAAISLQSGVPSRFSGSESGTDFTLTISSLQPEDFATYYCHQANSFPLTFGGGTKVEIKRTVAAPSVFIFPPSDEQLKSGTASVVCLLNNFYPREAKVQWKVDNALQSGNSQESVTEQDSKDSTYSLSSTLTLSKADYEKHKVYACEVTHQGLSSPVTKSFNRGEC
notes: also called the bispecific antibody
- Kd [1]: 0.2 nM
- Kd [2]: 0.193 nM
- Kd [3]: 0.2 nM
- EC50 [4]: 13.4 nM
- Max (MFI) [4]: 260000 MFI
- EC50 [5]: 55 nM
- Kd [6]: 0.25 nM
- Kd [7]: 0.19 nM
- Kd [8]: 0.22 nM
- Kd (FcRn (cyno)): 454 nM
- EC50 [9]: 13.1 nM
- Max % TRV19+ [9]: 7.72%
- EC50 [10]: 53 nM
- Kd [11]: 0.21 nM
- Pan-T-cell activation (CD25), EC50 (nM), 24 hours, PBMC + OCI-AML3 (Table 10) [12]: 0.02 nM
- Pan-T-cell activation (CD25), EC50 (nM), 48 hours, PBMC + OCI-AML3 (Table 10) [12]: 0.01 nM
- Pan-T-cell activation (CD25), EC50 (nM), 72 hours, PBMC + OCI-AML3 (Table 10) [12]: 0.01 nM
- Pan-T-cell activation (CD25), EC50 (nM), 96 hours, PBMC + OCI-AML3 (Table 10) [12]: 0.01 nM
- Pan-T-cell activation (CD25), EC50 (nM), 120 hours, PBMC + OCI-AML3 (Table 10) [12]: 0.01 nM
- Cytotoxicity, EC50 (nM), 24 hours, PBMC + OCI-AML3 (Table 10) [13]: 0.02 nM
- Cytotoxicity, EC50 (nM), 48 hours, PBMC + OCI-AML3 (Table 10) [13]: 0.01 nM
- Cytotoxicity, EC50 (nM), 72 hours, PBMC + OCI-AML3 (Table 10) [13]: 0.004 nM
- Cytotoxicity, EC50 (nM), 96 hours, PBMC + OCI-AML3 (Table 10) [13]: 0.003 nM
- Cytotoxicity, EC50 (nM), 120 hours, PBMC + OCI-AML3 (Table 10) [13]: 0.004 nM
- EC50 [14]: 6.2 nM
- EC50 [15]: 10.6 nM
- EC50 [16]: 9.5 nM
